The subject of data set [1] is CCR5 4-finger ZFN-L (ZFP-FokI) (artificial). Put plainly: cell_activity. The conditions noted are these: with ZFN-R and WT CFTR donor in CCR5-expressing HEK293 Flp-In; 17% with CFTR delta508F donor; NHEJ deletions at endogenous CCR5.
In data set [2] the test system is CCR5 4-finger ZFN-R (ZFP-FokI) (artificial). Put plainly: cell_activity. The conditions noted are these: with ZFN-L and WT CFTR donor in CCR5-expressing HEK293 Flp-In; 17% with CFTR delta508F donor; NHEJ deletions at endogenous CCR5.

The results in this text go back to patent US20140127814.

In turn, “GTCATCCTCATC (double strand) [CCR5 ZFN-L half-site]” yielded an activity (% CCR5-negative cells) in data set [1] of 23.

On to “AAACTGCAAAAG (double strand) [CCR5 ZFN-R half-site]”, for which the activity (% CCR5-negative cells) in data set [2] turned out to be 23.
